Test results taken from article PMC4285296, “A complex gene locus enables xyloglucan utilization in the model saprophyte Cellvibrio japonicus” (Molecular Microbiology, 2014).

How the values were obtained:
CjBgl35A = biological target: T1, CjBgl35A (Cellvibrio japonicus, UniProt B3PBE0); assay: isothermal titration calorimetry; format: binding
T1 construct: gene bgl35A; native signal peptide (residues 1-36) excluded; recombinant in E. coli; pET-DEST42 construct with C-terminal tag, or modified pET28a construct with N-terminal His6 tag (crystals); model residues 37-575

CjAfc95A = biological target: T2, CjAfc95A (Cellvibrio japonicus, UniProt B3PBE3); assay: HPAEC-PAD, fucose release; format: biochemical; settings: 25 °C; pH optimum 6.5; apparent value, substrate preparation was a two-component mixture of XLFG and XXFG
T2 construct: gene afc95A; full-length (no signal peptide predicted); pET-DEST42 construct with C-terminal tag; recombinant in E. coli BL21(DE3), IMAC purified
T2 sequence (B3PBE3 1-782): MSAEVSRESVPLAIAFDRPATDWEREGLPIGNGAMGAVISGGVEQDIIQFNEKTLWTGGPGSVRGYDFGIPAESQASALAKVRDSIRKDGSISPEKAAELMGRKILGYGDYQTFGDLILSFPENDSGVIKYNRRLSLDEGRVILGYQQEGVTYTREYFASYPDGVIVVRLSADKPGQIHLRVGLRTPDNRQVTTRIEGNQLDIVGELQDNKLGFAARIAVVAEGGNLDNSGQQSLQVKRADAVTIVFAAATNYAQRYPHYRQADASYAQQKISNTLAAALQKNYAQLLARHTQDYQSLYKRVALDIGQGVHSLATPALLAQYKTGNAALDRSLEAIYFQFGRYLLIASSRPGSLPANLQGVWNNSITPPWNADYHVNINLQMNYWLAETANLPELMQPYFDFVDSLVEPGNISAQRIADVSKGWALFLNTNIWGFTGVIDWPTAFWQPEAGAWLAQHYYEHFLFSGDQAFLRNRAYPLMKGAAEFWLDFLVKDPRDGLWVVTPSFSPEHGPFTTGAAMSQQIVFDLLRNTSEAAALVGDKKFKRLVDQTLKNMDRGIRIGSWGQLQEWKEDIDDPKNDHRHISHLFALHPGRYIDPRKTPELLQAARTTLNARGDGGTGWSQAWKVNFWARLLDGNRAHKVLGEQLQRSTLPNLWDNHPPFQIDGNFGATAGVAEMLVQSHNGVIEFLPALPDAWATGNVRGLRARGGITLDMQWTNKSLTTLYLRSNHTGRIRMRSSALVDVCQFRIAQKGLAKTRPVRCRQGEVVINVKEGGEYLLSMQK
Excerpt: HPAEC-PAD, fucose release on CjAfc95A

[1] = substrate: C[C@@H]1O[C@@H](Oc2ccc([N+](=O)[O-])cc2Cl)[C@@H](O)[C@H](O)[C@@H]1O; assay: continuous chromogenic assay, 2-chloro-4-nitrophenolate release; format: biochemical, Cellvibrio japonicus; settings: 25 °C, pH optimum 6.5 (citrate)
Excerpt: continuous chromogenic assay, 2-chloro-4-nitrophenolate release on CjAfc95A

purified protein = substrate: O=[N+]([O-])c1ccc(O[C@@H]2O[C@H](CO)[C@H](O)[C@H](O)[C@H]2O)cc1; assay: purified protein; settings: 25 °C, pH optimum 5.5 (acetate)

Q: How did the Kd (CjBgl35A) turn out when OC[C@H]1NC[C@H](O)[C@@H](O)[C@H]1O [1-deoxygalactonojirimycin, 1,5-Dideoxy-1,5-imino-D-galactitol] was run?
A: Its Kd is 485 ± 42 nM.

Q: For C[C@@H]1O[C@@H](O[C@H]2[C@H](O[C@H]3[C@@H](OC[C@H]4O[C@@H](O[C@H]5[C@H](O)[C@@H](O)C(O)O[C@@H]5CO)[C@H](O)[C@@H](O)[C@@H]4O[C@@H]4O[C@H](CO[C@H]5OC[C@@H](O)[C@H](O)[C@H]5O[C@@H]5O[C@H](CO)[C@H](O)[C@H](O)[C@H]5O)[C@@H](O[C@@H]5O[C@H](CO[C@H]6OC[C@@H](O)[C@H](O)[C@H]6O)[C@@H](O)[C@H](O)[C@H]5O)[C@H](O)[C@H]4O)OC[C@@H](O)[C@@H]3O)O[C@H](CO)[C@H](O)[C@@H]2O)[C@@H](O)[C@H](O)[C@@H]1O (some centres unmarked) [XLFG], which Km (CjAfc95A) is on record?
A: The Km was 210 ± 17 µM.

B1: CjAfc95A (Cellvibrio japonicus Ueda107) (protein)
chain: T2 sequence (B3PBE3 1-782)
notes: full-length (no signal peptide predicted); pET-DEST42 construct with C-terminal tag; recombinant in E. coli BL21(DE3), IMAC purified
Q: How did the Km [1] turn out when B1 was run?
A: Its Km is 2100 ± 200 µM.

Q: And the kcat [1]?
A: Its kcat is 26.5 ± 1.1 s⁻¹.

Q: What about the kcat/Km [1] of the same molecule?
A: The kcat/Km was 12900 M⁻¹ s⁻¹.

B2: CjBgl35A (Cellvibrio japonicus Ueda107) (protein)
chain: APLPELLSNNGKHALMVDGAPYIILGSQTNNSSNYPDALKDVWPSMEKMGANTLSIPVAWEQIEPVEGQFDFSFVDVLLKEARQRKVRLVLLWFATWKNNAPHYAPAWVKLDNARFPRVVKEDGDTLNSLSPLGQNTLAADKKAFVELMKYLAKRDKDHTVIMVQVQNEVGTYGAVRDYSPMAQAVFNAAVPDDLIQKLQLKPGTWSQVFGRDADEFFHAYQIARYCDEVTVAGKAIKNLPMYVNVALRNPFNPGLPGQYSSGGGTDNVLHIWKAAAPNIDLIAPDIYFRDYKTVSKVLELYTRPDNALFVAEIGNDQPFARYLFPTLGKGGIGFSPFGMDDTDYTNYPLGAKVYNDETIEQFAQVYRLVNPMMREWARLSYQGQVWGVAEPLDSTTETQKIWNAEATPEEKEQHKKDRASALTQQLDLGLWDAEVTYGRPMFWVTPPEGNTPAAGGALIAQLDDNEYLVTAYKARVEFKPSQELAGKKFMIERVEEGRFEKGKWVMERVWNGDQTDWGLNFTDRPHLLRVKMASYSVQ
Q: With B2 as the molecule, how does the Km (purified protein) read?
A: The Km was 810 ± 50 µM.

Q: What about the kcat (purified protein) of the same molecule?
A: Its kcat is 10.1 s⁻¹.

Q: What about the kcat/Km (purified protein) of the same molecule?
A: The kcat/Km was 12500 M⁻¹ s⁻¹.
